Target: the molecule itself
Assay: SEC

B1: Nwk^1-428∆tips (domain or fragment, Drosophila, UniProt X2JAU8 1-428, looked up)
chain: MQPPPRKGNYVKFLKNLHTEQVAKLQLKNQHECDLLEDIRQFTIKRSAVEKSYSESLLKISSQYLNKKIPNIPDIKMEGMEERWNMWSVWRTVLEENEKLARARLAAIEVFQQQIADEAKVLRDYKLAIAKRSLAGIVNVQKELHLSVGDVDKTKKSYFDEEHCAHDVRDKARDIEEKLKNLITSLQKNSARVTSRKELLEEKSSGARNDYVLSLAAANAHQNRYFTVDLQTTMTTMENYVFERVAEYLMLMGRTELLTCSATQNSFGKIRDQAQQLTREYNLQCCYLFYPVLKQHIQYDFEACDNDPVRKVTAEHESAAETLTKEAKNLAGRVVKENASIRENAKKLALCQSLRDSGQRTDPNDPNGPDLDTKIEEFRDQIRRSETEKTKAEACLQCLRDGGINVDEWVQEAENMGVQEL
stoichiometry N: 2

Source: PMC3727933 (Molecular Biology of the Cell, 2013)
